Experimental data: paper PMC6321344, “Evaluation of [^68Ga]Ga-DOTA-TCTP-1 for the Detection of Metalloproteinase 2/9 Expression in Mouse Atherosclerotic Plaques” (Molecules, 2018)
Positions of bridges follow the written chain, without caps; N, C: chain ends. Residues, ends and D or L forms follow the SMILES beside them. *: point of attachment. X1 = O=C(O)CN1CCN(CC(=O)O)CCN(CC(=O)NCCOCCOCCN*)CCN(CC(=O)O)CC1

Columns and labels:
[1] = in vivo; details: both sexes, C57BL/6N, mouse, iv, 18 MBq, total radioactivity, Tracer uptake
Source text: (§1) Sixteen (eleven males, five females) low-density lipoprotein receptor deficient mice expressing only apolipoprotein B100 (LDLR^-/-ApoB^100/100, Jackson Laboratory, Bar Harbor, ME, USA, strain #003000) were used. Mice were kept on a Western-type diet for 4.4 months starting at the age of 3.5 months. Forty-two percent of their calorific intake consisted of fat and 0.2% cholesterol (TD 88137, Harlan Teklad, Harlan Laboratories, Madison, WI, USA). Nine C57BL/6N mice on a regular chow diet (five males, four females) were used as controls. The mean age and weight of the studied mice at the time of tracer injection were 8.2 ± 0.70 months and 38 ± 8.0 g for the LDLR^-/-ApoB^100/100 mice, and 3.9 ± 0.86 months and 31 ± 5.8 g for the controls. During the studies, mice were housed under standard conditions (light and humidity) with ad libitum access to water and food. The study protocol was approved by the National Animal Experiment Board in Finland and the Regional State Administrative Agency for Southern Finland, and carried out in compliance with the relevant European Union directives. The high-performance liquid chromatography (HPLC) system was a LaChrom instrument (Hitachi; Merck Darmstadt, Germany), including a pump L7100, an ultraviolet (UV) detector L-7400, an interface D-7000 and a computerized data acquisition and processing software. The reversed-phase HPLC column (μBondapak 10 μm C18, 7.8 × 300 mm, pore size 125 Å) was purchased from Waters Corporation, Milford, MA, USA. The online radioisotope detector (Radiomatic 150 TR, Flow Scintillation Analyzer) was from Packard, Meriden, CT, USA. The precursor compound DOTA-TCTP-1 (Figure 1) was obtained as a custom synthesis from Peptide Specialty Laboratories GmbH (Heidelberg, Germany).
(§2) Isoflurane anesthetized mice were intravenously (i.v.) injected with 18 ± 2.7 MBq (in 50–100 µL) of [^68Ga]Ga-DOTA-TCTP-1 via the tail vein. At 60 min after tracer injection, a blood sample was obtained by cardiac puncture and animals were killed by cervical dislocation. Various tissues were excised, weighed, and measured for radioactivity on a gamma counter (Triathler 3”, Hidex, Turku, Finland). Radioactivity values were normalized by the injected radioactivity dose decay with a delta time between injection and measurement, animal weight, and the weight of tissue. Results are expressed as the percentage of injected radioactivity dose per gram of tissue (%ID/g).

[2] = in vivo; design: species or system mouse; details: both sexes, iv, 18 MBq, total radioactivity, Tracer uptake
Source text: as §1, §2

[3] = in vivo; details: LDLR^-/-ApoB^100/100, mouse, iv, 11 MBq, total radioactivity
Procedure: A subset of mice (three atherosclerotic and three healthy controls) were imaged using a small-animal PET/computed tomography (CT) scanner (Inveon Multimodality; Siemens Medical Solutions, Knoxville, TN, USA). The mice were anesthetized using 1.5% isoflurane, and their temperature was maintained using a heating pad throughout the imaging. Mice were i.v. injected with 11 ± 0.86 MBq (in 50–100 µL) of [^68Ga]Ga-DOTA-TCTP-1 via the tail vein. PET data were acquired in a list-mode for 60 min, starting from the time of injection of [^68Ga]Ga-DOTA-TCTP-1. The images were reconstructed using an ordered-subset expectation maximization 2D algorithm with four iterations into 30 × 3 s, 9 × 10 s, 4 × 30 s, 5 × 60 s, and […] time frames. Immediately after the PET scan, 100 µL of intravascular iodinated contrast agent eXIATM160XL (Binitio Biomedical Inc., Ottawa, ON, Canada) was injected and high-resolution CT was acquired (80 kV, 500 μA). CT images were reconstructed using a Feldkamp-based algorithm, and images were analyzed using Carimas v.2.6 software (Turku PET Centre, Turku, Finland). ROIs were drawn in the aortic arch, blood pool (inside the LV cavity), and several relevant organs, according to the high-resolution CT image. Results are reported as the percentage of injected dose per gram (%ID/g) as a function of the time after injection, i.e., as time-activity curves.

[4] = tested on: MMP-2/9; details: quoted with the dose of the commercial inhibitor; ref product number 444251, Merck KGaA; cited from earlier work

For CC(C)C[C@@H]1NC(=O)[C@@H](NC(=O)[C@H](C)NC(=O)CN)CSSC[C@@H](C(=O)NCC(=O)NCCOCCOCCNC(=O)CN2CCN(CC(=O)O)CCN(CC(=O)O)CCN(CC(=O)O)CC2)NC(=O)CNC(=O)[C@H](CCCNC(=N)N)NC(=O)CNC(=O)[C@H](CO)NC(=O)[C@H](CCCNC(=N)N)NC1=O [[^68Ga]Ga-DOTA-TCTP-1, metal not drawn] (H-GACLRSGRGCG-X1; disulfide 3-10), the tissue uptake at 1 h ([1]; Aorta) was 0.52 ± 0.25 %ID/g, the tissue uptake at 1 h ([1]; Blood) was 0.69 ± 0.21 %ID/g and the tissue uptake at 1 h ([1]; Bone) was 0.63 ± 0.5 %ID/g. For the same compound, the tissue uptake at 1 h ([1]; Heart) was 0.16 ± 0.066 %ID/g, the tissue uptake at 1 h ([1]; Intestine) was 0.43 ± 0.18 %ID/g and the tissue uptake at 1 h ([1]; Kidneys) was 8.9 ± 3.6 %ID/g. It also gave a tissue uptake at 1 h ([1]; Liver) of 3.2 ± 1.6 %ID/g, a tissue uptake at 1 h ([1]; Lungs) of 1.3 ± 0.74 %ID/g and a tissue uptake at 1 h ([1]; Lymph node) of 0.48 ± 0.19 %ID/g. The tissue uptake at 1 h ([1]; Pancreas) was 0.17 ± 0.056 %ID/g, the tissue uptake at 1 h ([1]; Plasma) was 1.5 ± 1 %ID/g and the tissue uptake at 1 h ([1]; Salivary gland) was 0.23 ± 0.07 %ID/g. The tissue uptake at 1 h ([1]; Skeletal muscle) was 0.17 ± 0.13 %ID/g, the tissue uptake at 1 h ([1]; Spleen) was 1.7 ± 1.3 %ID/g and the tissue uptake at 1 h ([1]; Thymus) was 0.23 ± 0.07 %ID/g. It also gave a tissue uptake at 1 h ([1]; WAT (white adipose tissue)) of 0.17 ± 0.11 %ID/g, a tissue uptake at 1 h ([2]; LDLR-/-ApoB100/100, mouse, Bone) of 0.53 ± 0.37 %ID/g and a tissue uptake at 1 h ([2]; LDLR-/-ApoB100/100, mouse, Heart) of 0.23 ± 0.083 %ID/g. It also gave a tissue uptake at 1 h ([2]; LDLR-/-ApoB100/100, mouse, Intestine) of 0.59 ± 0.22 %ID/g, a tissue uptake at 1 h ([2]; LDLR-/-ApoB100/100, mouse, Kidneys) of 8 ± 2.9 %ID/g and a tissue uptake at 1 h ([2]; LDLR-/-ApoB100/100, mouse, Liver) of 1.8 ± 0.48 %ID/g. The tissue uptake at 1 h ([2]; LDLR^-/-ApoB^100/100, mouse, Aorta) was 0.43 ± 0.19 %ID/g, the tissue uptake at 1 h ([2]; LDLR^-/-ApoB^100/100, mouse, Blood) was 1.3 ± 0.4 %ID/g and the tissue uptake at 1 h ([2]; LDLR^-/-ApoB^100/100, mouse, Lungs) was 2.8 ± 1.6 %ID/g. It also gave a tissue uptake at 1 h ([2]; LDLR^-/-ApoB^100/100, mouse, Lymph node) of 0.49 ± 0.15 %ID/g, a tissue uptake at 1 h ([2]; LDLR^-/-ApoB^100/100, mouse, Pancreas) of 0.35 ± 0.17 %ID/g and a tissue uptake at 1 h ([2]; LDLR^-/-ApoB^100/100, mouse, Plasma) of 2.6 ± 1.4 %ID/g. For the same compound, the tissue uptake at 1 h ([2]; LDLR^-/-ApoB^100/100, mouse, Salivary gland) was 0.38 ± 0.15 %ID/g, the tissue uptake at 1 h ([2]; LDLR^-/-ApoB^100/100, mouse, Skeletal muscle) was 0.19 ± 0.077 %ID/g and the tissue uptake at 1 h ([2]; LDLR^-/-ApoB^100/100, mouse, Spleen) was 1.9 ± 1.6 %ID/g. For the same compound, the tissue uptake at 1 h ([2]; LDLR^-/-ApoB^100/100, mouse, Thymus) was 0.35 ± 0.29 %ID/g, the tissue uptake at 1 h ([2]; LDLR^-/-ApoB^100/100, mouse, WAT (white adipose tissue)) was 0.17 ± 0.21 %ID/g and the tissue uptake at 1 h ([3]; Radioactivity in myocardium (PET/CT)) was 0.81 ± 0.3 %ID/g. It also gave a tissue uptake at 1 h ([3]; Uptake in atherosclerotic aorta (PET/CT)) of 0.77 ± 0.16 %ID/g, a tissue uptake at 1 h ([3]; Uptake in blood pool (PET/CT)) of 1.1 ± 0.64 %ID/g and a tissue uptake at 1 h ([3]; Uptake in liver (PET/CT)) of 4.7 ± 3.8 %ID/g.
For “H-Cys^1-Thr-Thr-His-Trp-Gly-Phe-Thr-Leu-Cys^10-OH (cyclic: 1→10) (disulfide) [MMP-2/9 inhibitor]”, the IC50 [4] is given as 10 µM.
